Test: soluble on expression in E. coli; label from the status in PepcDB or PDB records

Row | Sequence | soluble on expression in E. coli
1 | MNMQKLRIELGEETNDELYDLLLLADPSKDIVDEYLERGECYTAWAGDELAGVYVLLKTRPQTVEIVNIAVKESLQKKGFGKQLVLDAIEKAKKLGADTIEIGTGNSSIHQLSLYQKCGFRIQAIDHDFFLRHYDEDIFENGIQCRDMVRLYLDLLEHHHHHH | soluble
2 | GPGSMPHGISYYEFPWPDMTAPQQDIVLRSVQVMDYHIKQKGKVLVHCHAGLGRTGLMIACYYVYSQHIPSDEAIALVRKMRPGAIQTTRQAQFIADFEKHLWRLSQAFRVEISDALIDLNLFIQRQRLVLHGEQADLYKSVPLFLHTILCRLLNLTKDNPEAARLALQSLGPSAAPTDTTLSACRIAINRRRFRVQSVRDVSILSFLVCDWFRSTSSPALTEENCDQIVESMRASISKQEGLPLEIRRILSKPARHTLGMVISAFFIISRQVGCVSLTNFAFRCVVDSFNHAFNPIKVRHSPLERELIHKFFLEWGESVGDLYFNYDTVPAAHRTIKRIALASSIVLEATKNTDPPRRSSPSVRTLSVPSSTPEMSSNPAKQTGAPDSALVFSTQSRASHLFDMPLAVETDSESKTRLWRQHLIEYRRDTDGRRGRGERQRPPASSADAKVKR | not soluble
3 | SNAMLKREMNIADYDAELWQAMEQEKVRQEEHIELIASENYTSPRVMQAQGSQLTNKYAEGYPGKRYYGGCEYVDVVEQLAIDRAKELFGADYANVQPHSGSQANFAVYTALLQPGDTVLGMNLAQGGHLTHGSPVNFSGKLYNIVPYGIDESGKIDYDEMAKLAKEHKPKMIIGGFSAYSGVVDWAKMREIADSIGAYLFVDMAHVAGLIAAGVYPNPVPHAHVVTTTTHKTLAGPRGGLILAKGGDEELYKKLNSAVFPSAQGGPLMHVIAGKAVALKEAMEPEFKVYQQQVAKNAKAMVEVFLNRGYKVVSGGTENHLFLLDLVDKNLTGKEADAALGRANITVNKNSVPNDPKSPFVTSGIRIGSPAVTRRGFKEAEVKELAGWMCDVLDNINDEATIERVKAKVLDICARFPVYA | soluble
4 | MELTAVPATQFSSVQLTDILNACFEAYLVPVTQSVEGFVQRFSAEGMSLVDSRVWLAGDEPAAIAIVARRGSAARLAAFALRPAWRGKGLGRKLMQELLMLLQQQGIETVYLEVIRDNHAAVALYQSLGFTRRYGLCGYLSTELLAPVPGVLQLYPTLSLLRRAIEESNSQLPWLLDPLTFATLPCQVVTLEQRAFAVLTTAGSRPVLSFLWVEPAARRQGLARELLMALAQQFPGIGTSVTVPETFTPLFAAAGYTPLSLQQYEMTMDLADAKSA | not soluble
5 | MVSKRTKESIRNLNIFKGLELCIHISESVSYRVSKNRTVIFIISIGYKGVTVSKGPTYQERFTFTTQKFNAKSCLNHFLYVINPTKIDDLHFSIITGTFDDPKIQMAVECLKGLRVVNLNTPILSNTKTLAELVKTFEPTEHLKIHRYPFQTLGFAQLFQLREILPGKFPILSLNINMPLNGLLLTSSSSVGVNNNRLLTSKDFNIFLKHWIAGLKPELECIRILDYRLDWNEHTVLKGIPYEVAPMETKIKFRRKEELQLGGFDFTMSSGVKATLHFHYWDRVPITEISVVLHDSEIITFL | not soluble
6 | MAHHHHHHMSGAFGCGSYRSVVAGTQNVPRRMTFYPSAYELIQLHKAHREVIRHFYVRDKIFDNKFPGNALANGLFKFVPNRRENYHMRELMESIRRRSIWMHRIKQQREINAKVVENMEVKYGKKAAASMLCFTTPDSNAYFAPHRYQDVANSWPNYWQHPSVNHVVPKPRWRRHRELGGITRVEDPFAVQASDY | not soluble
7 | MGSSHHHHHHSSGLVPRGSHMHVQAKFSNNLNIFEYSIVIRKIFYLGPPGSFSQEAAEIFGSDLVPVRSISEIFHKISVTGDYGIVPIENSIEGPVNETLDGLFRHEDIYIVDHVEIPIEIFLASNCDTENIRRIYSHPHAIAEAGDYLERTENIEVIRTSSTSEAAKLASMDEAGAALCSMKAAQHYGLANTVKIESKSRNITRFILIGRERNVEGSRHIILCVIPDRPGSLHSLIGVLASRGINMNMIYSRPLRDTIWKYYFYIEFSGKLDEDLLLTMGKQSLRILYKGSFKCCR | soluble
8 | MTAENLSLSPELLDAVRRISGTEHLLVALDFDGTLSPIVDRAEDARPLPRSAAALEALAQLPRTTTALISGRALDSLRLVASPPADTLLIGSHGAEVWLGEGSLGLELDEDQRLKLAAVREVLSEIVNIAPGTLLEDKPAGVVLHTRMADDDVADDAVEAAMRVLREHPGVYLKTGKRVLETSVVHASKGQAVEFLRQATGATAILFAGDDVTDEDALGRLMGDDVGIKVGLDFTQAQYRVEAPVHVAELLEALLRERRRVTTDA | soluble
9 | MAHHHHHHMTSFMLATNCPDELCCALCLDSWKKPVELQPCGHIFCQECIGAPRVCPVCRAPVNCTKQPHRSLVNLAQNLPVRCSSCGWTGRREGSDSHTCPTASWSGSTEAPSTTNAQSTCQGSRQQSVADTPWLRYGLTQEEYDSIVALFVFFDSDESGHLCREEMGRLARWLNFARTDDDIDRMFREMDEDGTGTLCLEEFLSWLSKNRPDPSVLYGMSQQQYNCVMMQFRLYDRDRDGFLDADDFSKLAVRIGDVPDIESGMQLFRSITTGHCEKIGLHQFLLYCVGRMFR | not soluble
10 | HMKIAIFGTVGAGKSTISAEISKKLGYEIFKEPVEENPYFEQYYKDLKKTVFKMQIYMLTARSKQLKQAKNLENIIFDRTLLEDPIFMKVNYDLNNVDQTDYNTYIDFYNNVVLENLKIPENKLSFDIVIYLRVSTKTAISRIKKRGRSEELLIGEEYWETLNKNYEEFYKQNVYDFPFFVVDAELDVKTQIELIMNKLNSIKNPN | soluble
11 | MAPPKRRSTRPTTPAAPTDPPIEEKKPDLLIAYDSDEKFVFSFSEEGLTAKECAEKMNGFSTKEQFLTEVHVDEMLRFLTKVIIGRKGEPLKCLCCDRLYVSSSGFLIHIKKCSTKNEQDRLTDAQNKYRNEPSKWLNVRKKDQIATLKTIVGTNYTCFMIGCSLNFGSLKDLIEHLATCIGADYYSYKNRPDDFRKLSKKAKQAYTLDAVTKNKGIVKCLVCDKEYTNHMSIIYHIDRCQVDKSLQPWKCWRCGFDATAADAQEHLIDCGRTAEMKMFDRLPESSSFGFPIPGSSVPSTSEPTTSAAAAPTKRKRVTGGAPRATPRKDGTTLYRFRKSTISRSSNGIVTKKDKKLYEDQCSKIFENWKQKSAEIAFCDTLSNIANSKWKLSILDSNDQFYRIFTRQSVTLVSGKTLGLQQTVPPGIRLDALKSREMLDEDDAPKATVGYCGAPINSINVAPGKTRDGSDVICVTTFANDTDLESDSSCVQFWKHKLGKKKKSHLELWFLIHLPLRGTILHATWLQKQHNDEMMTSLIGYVAFSTTIGQILIYKIDESRVPEAPDRGDNVHVIVADPDLTLRLPKSTDTPDDTFLNADVKMEGDDIVVLPTRIDESTVPLLKIAWSYHNGGATLAALTALGAIAIWNLDGGDLDMPRVNIEESWQSPPSDIAFWNIDHLVVGFREKIVKVISIETWDVMLEDNTAKNAGSRVHTDNRIVRSFFMFQSDHTAFPYPNATNLTYVHCDIDTMTMILVPTGNTHQLLTWDVAMCPAVGTLLSSGIDGRLVASATGRFLGNMRHSYFANRNVMALKRRRILKESQTMEEYLKEVKMEGSAEGSTSTSTTKISDDKINEPLEESITEHTEVCQKMWLDVQFDEIFEPTRPEFSCRDQRIESLNCVDGTTSRDWPVSFTGGEAGLLFAVSVKLHIEEMDL | not soluble
12 | GSHMHRVINHPYYFPFNGKQAEDYLRSKERGDFVIRQSSRGDDHLAITWKLDKDLFQHVDIQEMEKENPLAMGKVLVVEGQRYHDLDQIIVEYLQNKIRLLNE | soluble
13 | STDNTTSSDLIKNVETARSTIDGLIESLGWIELNYRCERQCNWDEVCYTPSWGPSPMGMTEPGSHNEGFGTHFDESRQRLVINSKLQCININDLMVNRNH | soluble
14 | MNNYLKNLKEVFARIFRPNNRKSTRTYLQRSISYWRRNSIYLDNIYNKISTDTAQLRFKHVKITRNPGGVDSMVWYEHSDLAEVLTVSPNPLEVPVVFWSNVTRAMLRDGVAVVVPRWKNGRLVEIWLAKKTVTWTAESVELMLDDVAVELPLTDVWVFENPKLNVTAQLNQITELIDINLNALTEKLSDGNSSLRGFLKLPTKAADEHLKQQARDRVDSMLDLAKNGGIAYLEQGEEFQELSKDYSTASKEELEFLKSQLYNAHGINEKLFTCDYTEEQYRAYYSSVMKLYQRVYSEEINRKYFTKTARTQGNKLLVFFDMADMISFKDLVEGGFKSKYAGLMNSNEFRETYLGLPGYEGGEVFETNLNAVRIGAEESE | not soluble
15 | MKVDGRRPEDEVIRETNAHGVSVVHIKKDPTTQKVEIVKNSIFNRRITASTVMEFAGAAAGSSLLATRFSPAGRQTRGTHNNCGNGYTPWGTYLTTEENFIGYFQRSGSDEYARTDAEKIALKRYGLGVKKDEPYLYEKDEKGAPKKDKDGKIIYLKDKNGELIPNVDEQGRQIYLGTSSRYGWETAIGQVESQDLYDRWNADVKAAQATQDYRNGPNTFGWMVEIDPFDGRQNPVKRTSLGRFAHEDSACRAVVGQPLAFYMGDDSRGEYIYKFVSTAVWDTKDINGGYTAGDKYMNAGKLYVAKFNNDGSGQWIELAYGKNGLNESNTTYPFKSQADVVTFARLAADSVGATKMDRPEWCTVNPVNGEIYVTLTNNSNRGKDYATDAANPRNYTDLYAGTKEQKGNVNGHIIRFKETDDKTTAETFKWDIYLFGAEASMASNINLSGLTDNNDFSSPDGMWFDPRGVLWIETDDGAYTDVTNCMMLAALPGQIGDGGTATTSNGQQTITGAKVTDATLRRFLVGPKQCEITGIAMTPDYKAIFINVQHPGEDSPSYAKPESNWPATQKDPSNKTARPRSATVVITRKDGGVIAGLEHHHHHH | soluble
16 | GYITVGNENSTPIELYYEDQGSGQPVVLIHGYPLDGHSWERQTRELLAQGYRVITYDRRGFGGSSKVNTGYDYDTFAADLHTVLETLDLRDVVLVGFSMGTGELARYVARYGHERVAKLAFLASLEPFLVQRDDNPEGVPQEVFDGIEAAAKGDRFAWFTDFYKNFYNLDENLGSRISEQAVTGSWNVAIGSAPVAAYAVVPAWIEDFRSDVEAVRAAGKPTLILHGTKDNILPIDATARRFHQAVPEADYVEVEGAPHGLLWTHADEVNAALKTFLAK | soluble
17 | MGHHHHHHSHMPTTSRPALDVKGGTSPAKEDANQEMSSVAYSNLAVKDRKAVAILHYPGVASNGTKASGAPTSSSGSPIGSPTTTPPTKPPSFNLHPAPHLLASMQLQKLNSQYQGMAAATPGQPGEAGPLQNWDFGAQAGGAESLSPSAGAQSPAIIDSDPVDEEVLMSLVVELGLDRANELPELWLGQNEFDFTADFPSSC | not soluble
18 | MSLSQAVSSPLYAAIDLGSNSFHMLVVRHIDGSVQTMAKIKRKVRLAAGLDEHNALSLDAMQRGWDCLSLFAERLQDIPAENIRIVGTATLRTATNAGEFIAKANQILGHPIDVISGEEEAATIYKGVAHTSGGLGRRLVVDIGGASTELIIGEGFEAKALTSLKMGCVTWLERHFKDRQLTATNFNNAILAAKQMLDPILTQYTELGWNVCVGASGTVQALQEIMLAQGMDEVITLTKLKRLQKQAMLADHLEELDIEGLTLERALVFPSGLSILIAIFESLNIEAMTLAGGALREGLVYEMVQDLRQEDIRARTIRCVQTRYQIDSAYGDQVATLASKLLAQCGGEAWINEPQAEMLLRTAAKLHEIGLTIDFKKGGEHSAYLLQHLDLPGYTRAQKHYLGEIVRRYREQLTSLPEQYALSGTSGKRVLRLLRLAVLLSHRRSPALEPMVELSAQEDKLTLTLDGEWLAKNPLTRTELELEANRQTDIGWPLSIECHEGGSHHHHHH | soluble
19 | MSLRIALAGAGAFGEKHLDGLKNIDGVEITSIISRTGEQAAAVAAKYGAKHSSTELEDALARDDVDAVILCTPTQMHASQAIACMKAGKHVQVEIPLADSWADSQEVLRVQQETGKVCMVGHTRRFNPSHQFVHNRIKAGEFNVQQMDVQTYFFRRKNINAKGEPRSWTDHLLWHHAAHTVDLFAYQAGRIVKANAVEGPIHPELGIAMDMSIQLKSETGAICTLSLSFNNDGPLGTFFRYIGDTATYIARYDDLVNGKEEPIDVSKVDVSMNGIELQDREFVAAIREGREPNSSVQKVFDCYRVLGELEQQLAKGEGHHHHHH | soluble
